The record followed here is the domain aggregation screens of Martell et al. (2025).
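Further: 20 min heating vs room temperature control held 20 min.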

The nature of this series: soluble fraction after stress (log2 fold change); higher = more stays soluble; pooled small domains, quantitative proteomics. The note with it: stress: 75 degC.
Regarding “HMKITFNPVSSGRLDIILAEKTGYTRSYVKQLVEKQAVTINGEAAKKSGQNVKAGDEIALDEP”, the “soluble fraction (log2)” value amounted to 0.151.
Consider “HMKITIDSVERDETFRLIWGTGWKPKNKIQELAAIQAKKNGLGRMNEVAGLAAWRGIWQQVAEQVAQEVL”, for which the “soluble fraction (log2)” value was -2.03.
The value for “HMKITKIWFTADHIFGRDEEGKEYSQSLLWYPKLSAASDEERSQYTFGYDGIHWRSLDEDISFESF” was -3.01; that for “HMKIVFGHVKWFDIDKGFGFLVLEDEGGDVLLHANVLKNFGRTSVSEDTKIEFEFLETDKGRQVSTIYNIL” was -3.28.
The value for “HMKIVQDIAFSDFLNEVEKDNVLDVNIKGDLINGNLADGRKFKTYTPYDPNLIEKLSNKNVTINVEPYN” was 0.512; that for “HMKKAENEKLNIPYDVTEFLASSIKDDIRMMEGAMVKLLALSSLTKQDITQSLAKRVIQDVLGSSA” was -0.209.
Next, “HMKKAMIISTKRGTPAAELDKIIREFEAKGLSVTMIRGTDYNVFGLVGDTTVIDEKQVRANPYVENVQRV”: -0.157.
Take “HMKKATYDVMVREALVSFKKKGATLQSIKKKIKADYAIEANATAVKSAIQKGMEAGSIRKSYDLYFFMD”: the “soluble fraction (log2)” value is -2.8.
Next, “HMKKDDLKQINGIGTTIEKKLNEIDIYNFYQISNLSKEDIETISEKIKTFPGKIERDNWVGQAQELL”: 0.0235; “HMKKIFIDAPLDTMITIPKDTTHHLLTVFRHKMEKPVLVGGSDGRTGVYQIQDVVDGEASAKLVGDIQ”: 0.738; “HMKKISAKQQQILDYISSYSLEHGYPPSVREIGAEMGLRSPSTVHAHLKKLQEAGYLEPNEHKSRALTP”: -0.146.
The value for “HMKKITTANPLDINRATLAQLDTLPGIGPVTAERIIAYRSKVGRINSLDELKKISGLGGMKFEEIKPLLRV” was 0.0978; that for “HMKKKLPRYLQEQKYGNGMVFYRYNPTARYIDEGIVTRTNLGSDLSIAKKKANEFNKLIDAFLQQQSE” was -1.16; that for “HMKKMSFKEAFLKYVEIKDNPYNMESVKMLVSLQPLIVKAYSILGVDKVRRLNYVKTKIQDAIINGD” was -2.7.
Next, “HMKKNLELGLLPHEVKSILGEPDFIDTITDIDGIRYDMWSYTKLNVTKRLYFEDLFLVRMEE”: -3.31; “HMKKNNTTPIPKTLNYVNIKGLSNEAVERLNKHKPSTLGQASRLEGITPAATSLISIAIKKNQLLEKAES”: 0.0664; “HMKKPAERRKELVDAAAHLFAEKGYENTSVRDILDAVGGAPGMFYYYFKSKQDIYVAVMEDF”: -3.71.
Consider “HMKKPANLISEDRMVEVLYDVIIINTAKGVNKQLLQNNINNPLNYIYRSHGIDSLQFAESNAYYTS”, for which the “soluble fraction (log2)” value was -0.563.
The value for “HMKKSGFFSAGDRIQLTDNKGRQYSFNITEGKEFHTHQGFIKHDDLIGMPEGSVVSINSTTGVVQKFMAF” was 0.32.
Regarding “HMKKSIRIFELMKAKVAAEIFDQMILEGKIEDVFDIIVRLKDSNVSNIMKTMSVENSSRLVQKLERYNKD”, the “soluble fraction (log2)” value was -3.12.
As for “HMKKVRIPDDPEEAYRKALKTAMNIVGYKDNTEFTLREKLSERGYSGETVDAVAEFMKSKGYV”, the “soluble fraction (log2)” value was -0.0562.
Next, “HMKKVTMQDIANILNISRVTVWKVLNNQPGVSKQLRDQILLTAKETGYLKPGQEAEAYLEENNIYFEG”: -0.272; “HMKKYDIKEAQEIAEINRIPGLVTTSHGRRVYFDPKIMQYVSEEQIVKKYGQKTVKMLDQWYVSNILNK”: -0.21.
Consider “HMKKYLIIDAANEKIIFKIIDNNKTYTNDYENSRKNFDRFAVLLFNFLNKNMISFDTIDKAL”, for which the “soluble fraction (log2)” value was -0.118.
Next, “HMKLARGEFEIMAKFIKEISGISLEQNKTYLIESRLSDLAESEGVKTFSDFFFKAKFNKILKEKIIDAI”: -1.13; “HMKLHFTINGVHYTWYKQFIRGIQIRELGNIPREDELYLDLPDGWKDDFIEDDEIVDLARPGVEHFISRAK”: -4.84.
The value for “HMKLIIVPNLVGQSRRSVEISLQQIGLRIDTVYTEFNPDYPKGTVAWQFPKSGDHIKKGMGLQITVSQG” was -0.391.
Next, “HMKLINEDLNNEIVFEENKVNLLVIENKKKFVQFIQEIIKQINGDEGKFSLFDINTELKIHDKIDII”: 0.174; “HMKLIPLTDMRGQLRSGAPLPWGVRDAQGNLLLGKGHVIASDDMLEALLARGMFVDAEEAKAARG”: 0.0132; “HMKLISVAVMRASDAAEIAGGTDSKTLMYRAGLGLFQSWDWHGKIDIVTGSGNNAGDGYVLALLL”: 0.14.
As to “HMKLNKRQYAYQVIRSRILDGTYVPGQRIIIDQIAKEVNSSHIPVREAIHQLESEQLIDYEPNIGAIVKG”, the “soluble fraction (log2)” value was -0.242.
“HMKLSALRDKIKEHLLRQIQNGELQVGKTINLAALSRVTGISVTPIREALTQLEQAQVIQAVPNRGFVVA”: the “soluble fraction (log2)” value was -0.418.
“HMKLSIGGTIEKLRRNKGLSHQQLANALGVTPDTVEKWEINAAYPDITLLSPIARLLGTTLDALLMF”: the “soluble fraction (log2)” value is -1.77.
The value for “HMKLSKLTKPELDEIFRNANFTEEEEKVFWLLARGKSLEQISAKTFLPIATVNRRVKSIKDKIG” was -0.436; that for “HMKLTKPKLIQLIHIAKSKLNMDELSYRVLLDNLTGKTSTTKMTVGELLKVYESMKDKGFKPQV” was -0.993; that for “HMKLTTRQTEIINIVKAEQPISGEKIAQNLGLSRATLRNDLSILTMTGLLDAKPKVGYFYTGQ” was -0.976.
Regarding “HMKLVESALSILEEAVDRDFHGNLGDAARYFDIPYQTIYSWLKSRKRVPSLRALEPVLEKLGVSFTT”, the “soluble fraction (log2)” value was -2.01.
Next, “HMKLVTIPNVIGKTKEDAMKTLKDLGVTVTVETKESEKDDGTVIAQSKAEGTKLTAGENVTITVSKKKK”: no less than 1.04; “HMKMATITKRTNPSGAVVYRAQVRVKREGYPPYSESRTFSKKSLATEWAKRREFEIETNPDLLFN”: -1.76.
The value for “HMKMLEINDNDSVGLKNLKTQYNHNQKVIENFQLEINKVINDGELPDKYLLDGMEKYQKLNMQIMSTIEKQ” was 0.0503.
Consider “HMKMPNGYGSVYKLSGNRRKPWAARVTDGWVNDTKTKKSKQKYKFIGFYETRKEALLALADYNANP”, for which the “soluble fraction (log2)” value is -2.05.
For the sequence “HMKMSLKENLLELLQKSSGEFLSGERAAETLGVSRTAVWKAVTSLKNEGYNIESVTNRGYRFS”, the “soluble fraction (log2)” value is -0.34.
The value for “HMKNANGYGSITKLKGNRRKPYMVRITVGRDENGFPIRKVLGYYSSKANAVAALSDYNREPYDI” was -1.78; that for “HMKNENSLLVSRLAEEKIINRAKLVLMEYLKLSEPQAHRYIEKQAMDLQISRAEVAARVLETYE” was -1.35; that for “HMKNEVENLSYMINRIIEYRDLNNLSNKNLANKIGISEALLSYILNGRRKLSKEIQRKIALFLLND” was -1.99.
The value for “HMKNFAPVWGEEGAEFGKEVDTGFRLRIVEKEKDVNDLFEVIQKHTIQSQWKPGSTGTESIYKRI” was 0.886; that for “HMKNHIEERRKARGMTQQQLASELGVSRQTIISLENGKYNPSILLAHSIARLFGERIEDIFILR” was -2.45; that for “HMKNINTNIGKNLKRIRKLRGLTIDALATSSGVSKSMISEIERGIRNPSITIIWSLANALKTPLNYFLKE” was -1.46.
The value for “HMKNKFYEEFSDYIFKHTGIHYAEANYYQLDARINKLMKFLETSDENDVLKAIQGGAVKDQRVHQMIVDLA” was -2.16.
Take “HMKNKRERLGIISEILRMQVIGSQEELLDILRAKGYDVTQATLSRDLKVLKVAKTPLSNGAYKYVLPPQ”: the “soluble fraction (log2)” value is -1.39.
On to “HMKNLSQAEFMYLFKILAFGSTDPDNHPEMAATGMEIAKMLQGLLLSGNVLADILRKNQNVQFWL”, for which the “soluble fraction (log2)” value is 0.0572.
The value for “HMKNNITFSEFLHEVDNGRVIKVNIQGNNITGILADGKSFNTYTPNDPSLIEKLTSKGVSISATPI” was 0.13; that for “HMKNNLKGSPIIIAGGYGVGSKENFNLLFDLAKVLNAEVGASRAAVDAGFVEHDRQIGQTGVTVRP” was 0.143.
Next, “HMKNNYQYIVDQIKQLILDGELIVGDRLPSERDLSEMYQVSRASVREALKALETIGLLESRHGGGNYIVNH”: -1.28; “HMKNQIGFKIKNARRKASISQADLSAKLGISSSYLNLIESGKRNVNVDLLLKVSDVLNIELKDLSK”: -2.06; “HMKNTYTVVSGDTLWGIASRKLGGGSNWTKIYDANAATIESVANRRRGGRGSDHGHWIYPGTVLTI”: -0.298.
The value for “HMKNYYRILGLNIDAEYEEIKAAYRILAQRHHPDKGGAAAEFRLIQEAYDILSNPLTKRNYDADLLATLN” was -2.65.
As to “HMKPDMAVIVGSRTLTFATTTDRQILVLRTDGTMVNRLSMKAGETRTITLPAGVYIVNGKKIIV”, the “soluble fraction (log2)” value was -2.35.
Next, “HMKPFSLESYKAFVVKRLGLFPETSSAQMHDWLKEEYPDFPLITPRTVYNFVMKIRQDYGIAKV”: -3.43; “HMKPFVVVPIDQVRVGMFIQLDLGWMQHPFPVGSFRVASEAQIDTLRSLDLESVRYLPAKSDPAFQQP”: -2.82; “HMKPGNFILDLLRTYGQKGTSAQNLMSSSRMFNFSENLIRVTLSRLAARGLIENFERGHYRLAE”: -0.488.
Next, “HMKPGTIVTGVVVDIKSDVVVVNAGLKSEGIVPIEQFRNDRGELEVAIGDEVKVALDSLENGFGETVLSRE”: -0.435; “HMKPQKRYLFEEVLTFLKHNSEKSFNYKQLGAAMEISNESDRFTLLETLEELKHQGFVVEKEIGKYQAKE”: -1.25.
Take “HMKPRVTVVTLGVDDLERAVRFYAEGLGFPTEGIVGREFEFGAVAFFDMQPGLRLALWPRRSLAHDSGLP”: the “soluble fraction (log2)” value was -0.373.
Next, “HMKPSISKIYALWGVLQRSGKIKSQDKAALDAFVRKYTGVDHVKWLDESQARKIIEILKQMIA”: -1.55.
Next, “HMKPSKTDEAEYWLMERLEEGPQPAGDLIRIGEEFGYTPKILRDAGERFNMERYKDGLDHWMWKLPN”: -0.154; “HMKPVTNHTVKFYVDDVLWKTVTVKHGGNVRLADLPMSDGKTFVGWSESVVNVTKDLTVFALFS”: -1.96.
Consider “HMKPVYNKVEIPRGGEYALVLSDGTKVHLNSMSSLRFPVAFTTGKREVELQGEAYFEVSKTGQPFIVNV”, for which the “soluble fraction (log2)” value is 0.219.
The value for “HMKQGKGIIVVDGKLMPEDFNVATLSLDEVESITVLKGEKAVALYGEKAKEREVLLITTQKG” was 0.427; that for “HMKQKAEVIFVSKTIMEALSKGVRLTPENLKSETELPIDDFYARLKELIDNGSVVESRENGESYLEAGN” was -0.0162.
